In patent publication US20200017598A1 one finds inhibition of C5a-induced CD11b up-regulation on neutrophils (live Ly6G+ cells) in mouse whole blood stimulated with recombinant mouse C5a, flow cytometry data, which are given here for one substance.

In this assay the target is mouse C5aR (mouse) (UniProt P30993). The experiment in a line: cell-based or functional assay.
Sequence of UniProt P30993 (P30993 other isoform, or with tags, fused parts or gaps): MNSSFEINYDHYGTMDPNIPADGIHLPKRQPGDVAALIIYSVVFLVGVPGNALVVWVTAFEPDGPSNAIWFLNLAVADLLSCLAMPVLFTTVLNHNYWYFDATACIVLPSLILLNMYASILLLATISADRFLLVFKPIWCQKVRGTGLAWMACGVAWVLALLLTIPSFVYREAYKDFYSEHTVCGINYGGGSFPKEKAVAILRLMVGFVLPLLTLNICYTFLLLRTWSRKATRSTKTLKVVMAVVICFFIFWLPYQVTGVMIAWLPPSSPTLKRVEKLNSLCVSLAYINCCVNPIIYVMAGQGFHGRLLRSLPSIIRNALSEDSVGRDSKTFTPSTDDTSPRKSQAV

In the case of “Anti-mouse C5aR mAb m20/70 (20/70 variable regions on mouse kappa and mouse IgG2a.1 constant regions) (from UniProt P01863 1-330) (antibody)”, the inhibition of C5a-induced CD11b up-regulation on neutrophils (live Ly6G+ cells) in mouse whole blood stimulated with recombinant mouse C5a, flow cytometry turned out to be 0.6 µg/mL.
